Target: T1, SipB (recombinant, His-tag technology, expressed in E. coli) (Salmonella, UniProt Q56019 1-593)
T1 construct: also called first 'translocator' protein SipB from SPI-1
T1 sequence: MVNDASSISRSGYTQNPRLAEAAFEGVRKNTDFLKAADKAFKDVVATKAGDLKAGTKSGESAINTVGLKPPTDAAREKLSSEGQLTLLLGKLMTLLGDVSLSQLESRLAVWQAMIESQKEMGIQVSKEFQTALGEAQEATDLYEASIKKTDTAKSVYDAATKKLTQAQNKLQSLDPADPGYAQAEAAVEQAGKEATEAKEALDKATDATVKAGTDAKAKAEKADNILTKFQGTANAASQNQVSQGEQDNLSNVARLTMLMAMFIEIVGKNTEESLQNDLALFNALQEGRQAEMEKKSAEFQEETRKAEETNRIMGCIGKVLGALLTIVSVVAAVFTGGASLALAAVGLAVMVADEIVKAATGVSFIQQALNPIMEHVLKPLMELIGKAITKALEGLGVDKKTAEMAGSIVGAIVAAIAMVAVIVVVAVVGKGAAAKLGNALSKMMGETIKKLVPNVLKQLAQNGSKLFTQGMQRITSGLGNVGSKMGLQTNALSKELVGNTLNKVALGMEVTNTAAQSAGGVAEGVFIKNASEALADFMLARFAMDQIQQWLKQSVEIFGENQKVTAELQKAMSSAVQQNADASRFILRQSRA
Test: co-expression in E. coli and co-purification by column chromatography

B1: SicA, cognate chaperone of SipB (other)
chain: MDYQNNVSEERVAEMIWDAVSEGATLKDVHGIPQDMMDGLYAHAYEFYNQGRLDEAETFFRFLCIYDFYNPDYTMGLAAVCQLKKQFQKACDLYAVAFTLLKNDYRPVFFTGQCQLLMRKAAKARQCFELVNERTEDESLRAKALVYLEALKTAETEQHSEQEKE
  binding result: binds
